B1: E3 ubiquitin-protein ligase CHIP (Homo sapiens), Q9UNE7-1 (parent)
chain: MKGKEEKEGGARLGAGGGSPEKSPSAQELKEQGNRLFVGRKYPEAAACYGRAITRNPLVAVYYTNRALCYLKMQQHEQALADCRRALELDGQSVKAHFFLGQCQLEMESYDEAIANLQRAYSLAKEQRLNFGDDIPSALRIAKKKRWNSIEERRIHQESELHSYLSRLIAAERERELEECQRNHEGDEDDSHVRAQQACIEAKHDKYMADMDELFSQVDEKRKKRDIPDYLCGKISFELMREPCITPSGITYDRKDIEEHLQRVGHFDPVTRSPLTQEQLIPNLAMKEVIDAFISENGWVEDY

Variants of: B1
Conditions: with akt1_human AKT1, P31749
Chain of akt1_human AKT1, P31749 (P31749 whole entry): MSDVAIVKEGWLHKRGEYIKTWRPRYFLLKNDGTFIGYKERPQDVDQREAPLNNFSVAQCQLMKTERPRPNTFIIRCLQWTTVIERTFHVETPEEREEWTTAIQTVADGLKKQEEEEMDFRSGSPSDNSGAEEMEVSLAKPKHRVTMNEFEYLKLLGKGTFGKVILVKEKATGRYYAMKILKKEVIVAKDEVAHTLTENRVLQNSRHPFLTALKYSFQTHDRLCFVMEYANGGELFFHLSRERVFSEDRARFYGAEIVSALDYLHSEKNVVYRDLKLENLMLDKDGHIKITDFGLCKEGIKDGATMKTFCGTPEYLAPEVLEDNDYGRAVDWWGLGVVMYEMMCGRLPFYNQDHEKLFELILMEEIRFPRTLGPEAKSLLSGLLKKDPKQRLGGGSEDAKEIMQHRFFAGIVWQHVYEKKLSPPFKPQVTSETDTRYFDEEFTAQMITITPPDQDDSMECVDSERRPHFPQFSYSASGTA
For K30A, the “effect of a mutation on the interaction” value was “disrupting interaction”.
